Data taken from patent US6656716.

What was measured:
[1] = molecular target: T1, ZC1 activation loop peptide # 7, RRNTFIGTPYWMAPE, aa 184-198 (SEQ ID 125) (not fully specified)
T1 chain: RRNTFIGTPYWMAPE

[2] = molecular target: T2, KHS1 activation loop peptide # 4, KRKSFIGTPYWMAPE, aa 171-185 (not fully specified)
T2 chain: KRKSFIGTPYWMAPE

[3] = molecular target: T3, PAK5 activation loop peptide # 1, (C)RRKSLVGTPYWMAPE, aa 471-485
T3 chain: CRRKSLVGTPYWMAPE

[4] = molecular target: T4, STLK4 activation loop peptide # 9, RNKVRKTFVGTPCWMAPE, aa 66-83 (not fully specified)
T4 chain: RNKVRKTFVGTPCWMAPE

[5] = molecular target: T5, ZC1 activation loop peptide # 8, RRNTFIGTPYWMAPE, aa 184-198 (SEQ ID 126)
T5 chain: RRNTFIGTPYWMAPE

[6] = molecular target: T6, SULU1 activation loop peptide # 6, PANSFVGTPYWMAPE, aa 174-188 (not fully specified)
T6 chain: PANSFVGTPYWMAPE

[7] = molecular target: T7, PAK5 activation loop peptide # 2, (C)RRKSLVGTPYWMAPE, aa 471-485
T7 chain: CRRKSLVGTPYWMAPE

[8] = molecular target: T8, STLK2 activation loop peptide # 5, KRNTFVGTPFWMAPE, aa 175-189 (not fully specified)
T8 chain: KRNTFVGTPFWMAPE

[9] = molecular target: T9, PAK5 activation loop peptide # 3, (C)RRKSLVGTPYWMAPE, aa 471-485 (not fully specified)
T9 chain: CRRKSLVGTPYWMAPE

B1: human PAK5 (protein)
chain: MFGKRKKRVEISAPSNFEHRVHTGFDQHEQKFTGLPRQWQSLIEESARRPKPLVDPACITSIQPGAPKTIVRGSKGAKDGALTLLLDEFENMSVTRSNSLRRDSPPPPARARQENGMPEEPATTARGGPGKAGSRGRFAGHSEAGGGSGDRRRAGPEKRPKSSREGSGGPQESSRDKRPLSGPDVGTPQPAGLASGAKLAAGRPFNTYPRADTDHPSRGAQGEPHDVAPNGPSAGGLAIPQSSSSSSRPPTRARGAPSPGVLGPHASEPQLAPPACTPAAPAVPGPPGPRSPQREPQRVSHEQFRAALQLVVDPGDPRSYLDNFIKIGEGSTGIVCIATVRSSGKLVAVKKMDLRKQQRRELLFNEVVIMRDYQHENVVEMYNSYLVGDELWVVMEFLEGGALTDIVTHTRMNEEQIAAVCLAVLQALSVLHAQGVIHRDIKSDSILLTHDGRVKLSDFGFCAQVSKEVPRRKSLVGTPYWMAPELISRLPYGPEVDIWSLGIMVIEMVDGEPPYFNEPPLKAMKMIRDNLPPRLKNLHKVSPSLKGFLDRLLVRDPAQRATAAELLKHPFLAKAGPPASIVPLMRQNRTR
For B1, the “substrate (in vitro kinase assay)” value [1] was “poor”, the “substrate (in vitro kinase assay)” value [2] was “yes” and the “substrate (in vitro kinase assay)” value [3] was “yes”. The “substrate (in vitro kinase assay), note” value [3] was “Equally well as MBB”, the “substrate (in vitro kinase assay)” value [4] was “poor” and the “substrate (in vitro kinase assay)” value [5] was “poor”. The “substrate (in vitro kinase assay), note” value [5] was “Better than 7”, the “substrate (in vitro kinase assay)” value [6] was “poor” and the Km [7] was “High Km for PAK5 (1-10 µM)”. The “substrate (in vitro kinase assay)” value [7] was “yes”, the “substrate (in vitro kinase assay)” value [8] was “poor” and the “substrate (in vitro kinase assay)” value [9] was “no”.
